In the supplement of paper PMC12042874 one finds amyloid nucleation score data, which are given here for 140 substances.

± gives the uncertainty stated by the source.

One series is described as follows: amyloid nucleation score (Sup35N fusion, yeast selection) (log enrichment); library NNK3; higher = more nucleation; inactive = no reads after selection. An outline of the steps:
(§1)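 Sup35N was fused to peptides of 20 random codons and expressed in psi-negative yeast, which were induced with 100 μM copper sulfate for 24 hours and then grown on medium lacking adenine and uracil for 7 days at 30°C. Plasmid inserts from input and output were sequenced on Illumina. The nucleation score is the DiMSum log enrichment of output over input reads, centred on the mode score of non-aggregating sequences. Sequences with under 100 input reads were left out, and random libraries had three technical output replicates.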
Consider VLAGACDYPYGNVLV, for which the amyloid nucleation score entry is “inactive”.

Turning to VIWVPVKIR, the amyloid nucleation score result was “inactive”. On the same count and under the same terms, the result for RLLHCGRILWGFVNDLMIML reads “inactive”; that for WTTYLWVAGVLA, “inactive”; that for LLSTTSAVAGGMACVSRNMW, “inactive”. Substance CCFYRSSWVFKLGEGRVIIP showed an amyloid nucleation score of 0.319 ± 0.43. As to IPFFIGCHNKCRVYLWVAVG, the amyloid nucleation score result was “inactive”. On to KQRVWR, for which the amyloid nucleation score entry was “inactive”.

Turning to YPRKFINLNRHWVVVNVFRM, the amyloid nucleation score entry is “inactive”. As for FGGAYFVTPGAYFVWYSFLG, the amyloid nucleation score was found to be 0.222 ± 0.31.

Take YVFDHDIGQ: the amyloid nucleation score result is “inactive”. Consider ISCTIVLRIVNYNAILVHTY, for which the amyloid nucleation score entry was “inactive”. ALLYRERKYSMLVKFVVYRS: the amyloid nucleation score entry is “inactive”.

For the substance FSCIMVRCYFR, the amyloid nucleation score entry was “inactive”. Substance SMKLLT came in with an amyloid nucleation score of -0.254 ± 0.7. On the same count and under the same terms, the result for DLSIRKFHGGSMDSLNMEYM reads “inactive”; that for DKRNSLGCGLNYGFKADDGW, “inactive”; that for FIQWQSESVYIAYSNFTSSM, “inactive”. Substance MYFSFLW came in with an amyloid nucleation score of 0.18 ± 0.47.

For the substance QHNSK, the amyloid nucleation score entry is “inactive”. Still for that read-out and setting: then CGRLHDVG, with “inactive”.

A short description of another series: amyloid nucleation score (Sup35N fusion, yeast selection) (log enrichment); library NNK2; higher = more nucleation; inactive = no reads after selection. An outline of the steps: as §1
In turn, KRYLWTGN displayed an amyloid nucleation score of -0.534 ± 0.35. The same measure, in the same setting: then LSLYFFDL, with 1.06 ± 0.36; and SYIGMNQNCFSEQLNNAQTG, with 0.606 ± 0.18. For RNFMVDRSGWQSKYVTHSLE, the amyloid nucleation score was -0.324 ± 0.6. YGSFIWWLPCNGMGLKCSRS yielded an amyloid nucleation score of 1.67 ± 0.12. Take STDIWVWFYRNFLMTANRN: the amyloid nucleation score entry was “inactive”. In turn, VVRVLLVWMFLLTLWHHLVN registered an amyloid nucleation score of -0.158 ± 0.34. The substance FSRSVKRLIVDVLRNKVCI gave an amyloid nucleation score of 0.58 ± 0.54. GWVCRKRWVVLYMKICMIRR registered an amyloid nucleation score of -0.249 ± 0.21. On the same count and under the same terms, the result for CRYPFTPACTYMNLG reads -0.114 ± 1; that for RKNVYFIFPIISSLYKV, 7.009 ± 0.049. In turn, VFSSFWVYKLYEFEASSNVR came in with an amyloid nucleation score of -0.371 ± 0.45. KCVGYW yielded an amyloid nucleation score of 0.811 ± 0.57. The substance TIQAYICPLVSKAYWWGVEY came in with an amyloid nucleation score of 6.427 ± 0.032. For the substance LHRYRNAQVSWE, the amyloid nucleation score is -0.512 ± 0.74. KLCKF came in with an amyloid nucleation score of 3.27 ± 0.073.

Turning to ALLFYGKMY, the amyloid nucleation score turned out to be 5.966 ± 0.052.

As for NPWVRFVVSCLYAVSQQCGL, the amyloid nucleation score was determined as 4.66 ± 0.07.

VMLGHYTVLFGVKVRECREG: the amyloid nucleation score came to 1.7 ± 0.19. Regarding IFWTELCNPKFSFC, the amyloid nucleation score amounted to 9.439 ± 0.023.

With YVLKVVIRRLRRSCVSCTWH, the amyloid nucleation score was -0.109 ± 0.25.

Turning to FVCTDCLF, the amyloid nucleation score was -1.35 ± 0.48.

For the substance TRAWITWAKVWRSQMNRGKA, the amyloid nucleation score turned out to be 0.699 ± 0.54. In turn, NWGMLLGCGGW displayed an amyloid nucleation score of 0.201 ± 0.8. As to RTHPTCSVCVKLYPLGTPRR, the amyloid nucleation score was 2.38 ± 0.13. For EAAYLVFSCVMCTFYFEFCF, the amyloid nucleation score came out at 2.55 ± 0.089. Regarding TTEYG, the amyloid nucleation score amounted to 0.239 ± 0.5. As to GLMMPYL, the amyloid nucleation score came out at 0.062 ± 0.39.

Substance YVDWAG registered an amyloid nucleation score of -1.56 ± 0.62. Substance YFSSQLDLRRIMLLLSRYV gave an amyloid nucleation score of 0.721 ± 0.54. AVFSSVLGYNA gave an amyloid nucleation score of 0.257 ± 0.56.

On to RQYFNVLDCWGIGVFGHKG, for which the amyloid nucleation score is 1.34 ± 0.3. Turning to WFENNDESMGQEWNKHCTSV, the amyloid nucleation score is 0.718 ± 0.24. The substance TFYCTSCFLLMSVMSFHRLL showed an amyloid nucleation score of 1.89 ± 0.13. With IKSLSMRYFIRLFRY, the amyloid nucleation score entry is “inactive”.

VVYRYRVRHCL: the amyloid nucleation score worked out at 0.725 ± 0.27. In the case of NQKSLFVARETSTMFPSPYV, the amyloid nucleation score was -0.141 ± 0.38. Same read-out and setting: the result for WSDSFTCDCGKLITTSSRLS reads 2.02 ± 0.15.

Take YCYVSRVFYRMCALAGWMGL: the amyloid nucleation score entry is “inactive”.

Consider NRVGSIPIGPVFTADVAIVL, for which the amyloid nucleation score was 4.16 ± 0.091. The substance HVVTRVSFESVFCLFTYF yielded an amyloid nucleation score of 3.83 ± 0.085. As for IYYDVFSVSCTFVKLGWIFL, the amyloid nucleation score stood at 1.96 ± 0.077. RNWWGLSVYNSIYWCVMSRD showed an amyloid nucleation score of 4.835 ± 0.043. The same measure, in the same setting: then NLDDYPG, with 1.66 ± 0.25. NNEFYRRYVGNYSLVMVMGN showed an amyloid nucleation score of -0.088 ± 1.1.

YWTPISFVY registered an amyloid nucleation score of -1.09 ± 0.64. Turning to LWIYNYVIRLDFICMERILL, the amyloid nucleation score result was “inactive”. The substance FTALSIGLIIVMLRLYRRCF had an amyloid nucleation score of -0.733 ± 0.64.

In the case of FPWYCVGYVRSKRDRKVAWS, the amyloid nucleation score amounted to 0.04 ± 0.34. The same measure, in the same setting: then IFSHFILCKQAAVCTVNEFR, with 5.08 ± 0.072; and SFTCALRLGVRGHWLIVTSF, with 0.276 ± 1; and MKKFLGWRYELNCWVLYNSG, with -1.16 ± 0.76. Still for that read-out and setting: then AFDLLDD, with 0.904 ± 0.33. The same measure, in the same setting: the result for CLYPLSVDVVSFHYCTTCCE reads 0.141 ± 0.33.

With KDYPLAGSLVTKL, the amyloid nucleation score came to 0.317 ± 0.62. LLNDFRQLNTRYDSRWGQWQ came in with an amyloid nucleation score of 3.08 ± 0.058.

As to DFFFCFRYTDLEQE, the amyloid nucleation score was -0.195 ± 0.61.

Turning to QIELGALNNRCGNRDGSGDW, the amyloid nucleation score was -0.842 ± 0.35. Consider LSRFFFNRAPRKVTGLSVRY, for which the amyloid nucleation score worked out at 0.96 ± 0.21. Take LMYKNCCWFLA: the amyloid nucleation score turned out to be 8.256 ± 0.062. As to HVRVYHPGQMNCSRYNTMQ, the amyloid nucleation score came to 0.217 ± 0.65. The substance HTSSLF returned an amyloid nucleation score of -0.156 ± 0.3.

The substance AAIMMN displayed an amyloid nucleation score of -0.231 ± 0.62.

RMLCLTSG: the amyloid nucleation score was -0.59 ± 0.63. MCDLDDRKTTLSPWLRSSLG: the amyloid nucleation score was found to be 1.14 ± 0.35. Regarding CNSRCEDWPWIERTPG, the amyloid nucleation score is 0.571 ± 0.47. DLGIYSLTNFKMLPST came in with an amyloid nucleation score of 0.544 ± 0.52. As for SCVVLNSYQCTAKRY, the amyloid nucleation score came to 0.284 ± 1.1.

NYMYGLNSVKSVGWLSDI returned an amyloid nucleation score of 0.069 ± 0.46.

Consider FSGLTDHFRSYLMYSAWTNI, for which the amyloid nucleation score was -0.238 ± 0.48.

Take VSFYDVH: the amyloid nucleation score is 0.011 ± 1.1. Substance FFTLVVTVLPRRFYRFNYR registered an amyloid nucleation score of 0.043 ± 1. Regarding GRELRTVRNAGPFDQWVGVS, the amyloid nucleation score came to 5.79 ± 0.086. Same read-out and setting: then DYAFRVYSGIPLKLSNS, with -0.373 ± 0.65; and FVANSRLLALRLVIGTMLAG, with 0.214 ± 0.77. With TRDCHYMVGRLMIEWFQSVW, the amyloid nucleation score was -0.063 ± 0.21.

For FGLMLRTS, the amyloid nucleation score was determined as 0.062 ± 0.41. Consider LVPPVLGAHVSNKVDVILHA, for which the amyloid nucleation score is -0.199 ± 1.1. With AFYIRLIAREP, the amyloid nucleation score result was “inactive”. The same measure, in the same setting: the result for REEGFS reads -1.29 ± 0.54; that for NECRVDFE, -0.668 ± 0.56; that for GCTCYWFS, 1.63 ± 0.15. In the case of CFIRHISGK, the amyloid nucleation score is -0.315 ± 0.63. As to DRLLHDTE, the amyloid nucleation score was -0.866 ± 0.76.

The substance YRGLTSLYLFNQV registered an amyloid nucleation score of -0.08 ± 0.23.

As for IHRPTRFYTFSSSTSEQA, the amyloid nucleation score came out at 0.351 ± 0.64. Same read-out and setting: then KVFSNIVMLLSVRLCCLMKI, with -1.58 ± 1.1. As for ARKISV, the amyloid nucleation score entry was “inactive”. For the substance HHLLVRMSMCC, the amyloid nucleation score is 4.49 ± 0.058. In the case of FTCITIGVFELAQACPIYGG, the amyloid nucleation score worked out at 6.15 ± 0.071. The substance GIVVSIMHGIDSYGAIY gave an amyloid nucleation score of -0.395 ± 0.39. As to AILSEGETGFVSDYRQVSEP, the amyloid nucleation score was -0.004 ± 0.34.

In turn, DLVVMSLRR returned an amyloid nucleation score of 6.18 ± 0.057. Same read-out and setting: the result for MSFRSRPGLDDGWMIRWRGR reads 0.446 ± 0.49. As for NIQTWGSGHVSTSDG, the amyloid nucleation score is 3.24 ± 0.089. In the case of YMCRVYMSNSINDFDLPHLL, the amyloid nucleation score turned out to be 2.06 ± 0.29. As to RVESDTDVIVQIMQWRGVFL, the amyloid nucleation score was found to be 0.334 ± 0.28.

In turn, DNRGKLDWAPSSVVSVWLIC registered an amyloid nucleation score of 3.74 ± 0.089. Turning to NCGKLHQF, the amyloid nucleation score was 0.403 ± 0.5. Take KLRVFPLKESVSQGALQTVG: the amyloid nucleation score was -0.476 ± 0.44. The substance CITLMYNTPFYKITALWQPF had an amyloid nucleation score of -0.484 ± 0.78. On the same count and under the same terms, then LHIMVFQYLKWHTAI, with -0.07 ± 0.49; and FNTILVRLPA, with 0.455 ± 0.55. The same measure, in the same setting: then HQDRERTRVPSIILFSLFTY, with 1.71 ± 0.17. As for SWLRMSTDVIGLRWFDGNA, the amyloid nucleation score stood at 4.84 ± 0.065. Same read-out and setting: the result for EFANWFVGYNQGSLGHALKQ reads 0.355 ± 0.42.

For the substance NCSSTIDFLFNLIHILKNF, the amyloid nucleation score result is “inactive”. SLNYIFLNLCRYLSCGIYIH: the amyloid nucleation score entry is “inactive”. The substance MLLFSLWGNYAGQVPWDRVG returned an amyloid nucleation score of -0.513 ± 0.48.

YLICD returned an amyloid nucleation score of -0.578 ± 0.76.

LCLRDFSFDGLVGSR showed an amyloid nucleation score of 0.119 ± 0.65. As to SYWIADTNRSGNRRLSCGRC, the amyloid nucleation score was 0.266 ± 1. For KWYFRSWRLMLYSVKFSFRI, the amyloid nucleation score was -0.693 ± 0.55.

Substance NYEGGCGVNGVMSVPAVRNP displayed an amyloid nucleation score of 0.082 ± 1. Turning to YNMMLSVWDSYVLLVECVME, the amyloid nucleation score is -0.801 ± 0.31. The same measure, in the same setting: the result for PWCESLCVRRGAESVSTWVK reads 1.2 ± 0.22; that for SMILVHKSNLQFLGKDDTQS, 6.539 ± 0.025. As to IMYCCVMLIFTMSVVEWGFT, the amyloid nucleation score was -0.383 ± 1. YHNWSA displayed an amyloid nucleation score of 0.025 ± 0.23.
